# B1: TPR t1 (parent)
# chain: GACCAAUCUGCCCUCAGAGCUCGAGAACAUCUUCGGAUGCAGAGGAGGCAGGCUUCGGUGGCGCGAUAGCGCCAACGUCCUCAACCUCCAAUGCAUCCCACCACAUGAUGAUGCCUGAAGAGCCUUGGUUUUUUG
# Variants of: B1
# Test: polymerase ribozyme fitness, log enrichment relative to wild type (log ratio); higher = more active; in vitro selection for triplet polymerase activity
# In short: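 A single round of triplicate in vitro selection, including frozen incubation at −7 °C, was applied to PCR-built, transcribed mutant libraries of each subunit of a heterodimeric triplet polymerase ribozyme. Illumina sequencing of input and output libraries retained genotypes with ≥10 input reads and ≥1 read per output. Fitness is the base-2 logarithm of genotype enrichment divided by wild-type enrichment, from inverse-variance-weighted replicate averages.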
row,Variant,polymerase ribozyme fitness (log ratio)
1,C13G U14A C64U C86A,-3.76
2,A100C U109A,-6.83
3,G36C A37C A41G G61U,-4.4
4,G51U G69U C88A C104U C123U,-0.711
5,G44C G60U U116C C124A,-0.335
6,A90U U106A,-1.76
7,C49U C89U,0.0169
8,C53U U87A C97A,-5.45
9,C97U G120U C124A,0.793
10,G10A C15A C94A,-3.08
11,G36C G44A A74U C79G C101U,-4.54
12,U21C G39C C56A,-1.44
13,G61A C85G G93A C101G,-2.53
14,A90G A95G U133G,-0.0907
15,C49U G65C C104G C123A,-7.83
16,C40A A111C,-1.49
17,C53U C104U,0.142
18,C85U C97A C115G,-5.83
19,G39U U109G,-5.73
20,C56G A74U G120U G127A,-1.98
21,G42U C49A U81G,-5.58

row,Variant,polymerase ribozyme fitness (log ratio)
1,C4U A43C U125A,-3.11
2,U38G G39A C72A U81A U112A,-2.71
3,C114U G127A,-3.37
4,C89G C104U A121U,1.58
5,G48U U59C C86G,-2.19
6,G45A A50U U130C,-0.0855
7,A18U U133G,-1.41
8,G45U C114A,-0.0443
9,C8U G44U G52A G63C A84U C85A,-6.83
10,C53U C56A,-0.566
11,C22U A37U A100C,-5.02
12,G10A C13G G69A U78C,-3.65
13,A43C C72A U81C,-3.09
14,A18U U54G C114U,-4.87
15,C88U C89A C115U G117C U126A,-3.5
16,U7C U14C A29G G71C G113U,-4.94
17,G71A C79U C98U,-1.99
18,G60A C98A,-4.29
19,A50C C88A U130C U133A,-0.495
20,G45A C72U A91G U129A,-3.43
21,C82G C101A C115A,-2.63

row,Variant,polymerase ribozyme fitness (log ratio)
1,C62U C104U A108C,-6
2,G60C G61C C73G C101G A111U G113C C123U U125G U126G,-7.1
3,C34U G57A G107A U109A U116G,-6.43
4,U9A C20U G71U A91C G107A G117A,-6.01
5,G77C C97U U109A,-5.64
6,G25U G39U G44U C73A,-6.92
7,C13G C62U U125A,-1.62
8,A2G G39U,-1.18
9,C13G C15U,-2.51
10,C8G G71U,0.189
11,G61C G77U U112A,-2.37
12,A37C G120A,1.02
13,G51U U55A C72A U129A U133A,-4.5
14,C8U A46U C70U G122U,-0.612
15,G19U U55C,-4.3
16,G47C C123A,-0.0743
17,G10U G63U,-1.31
18,G69A A84U,-3.06
19,G47C G71U,-1.65
20,G52U C62U C82A C102U C123G,-2.65
21,G63A C97U,-1.46

row,Variant,polymerase ribozyme fitness (log ratio)
1,A27C C62U C94U,-2.79
2,G17C G63A G77U U81A A119G A121C,-5.23
3,A29G A111C,-0.114
4,C13A C79G,-3.47
5,A26U A83U,-2.58
6,U9C A41C U87C C114U,-0.644
7,A74U A95U,-0.222
8,C79A C88U,-1.33
9,G17A C40U G60A C79G,-6.54
10,C49U C62A,-2.25
11,A16U G36A A41U C73A,-4.17
12,A90U A103U U106C,-5.93
13,G58C G120U,0.305
14,G113U C124A,-1.53
15,C82U A108U A121G,-4.59
16,G25U C34U G63C G93C G117C A121C G122A G127U,-6.74
17,U14C G61A G110C,-5.14
18,A29U C101A G110A A118G A121G,-4.96
19,C28G G60U,-2.56
20,G69U U125A,-0.179

# — the RNAGym collection of RNA variant scans (doi:10.1073/pnas.2313332121)
